Measurements reported in US20190330320A1.

Biological target: hyperphosphorylated human tau P301L (4R0N) from rTg4510 mouse brain (64 and 70 kDa species) (human) (UniProt P10636)
Assay: binding to P301L human mutant tau isolated from 10 month old Tg4510 mice

hyperphosphorylated human tau P301L (4R0N) from rTg4510 mouse brain (64 and 70 kDa species) (human), sequence (P10636 other isoform, or with tags, fused parts or gaps P301L P301L): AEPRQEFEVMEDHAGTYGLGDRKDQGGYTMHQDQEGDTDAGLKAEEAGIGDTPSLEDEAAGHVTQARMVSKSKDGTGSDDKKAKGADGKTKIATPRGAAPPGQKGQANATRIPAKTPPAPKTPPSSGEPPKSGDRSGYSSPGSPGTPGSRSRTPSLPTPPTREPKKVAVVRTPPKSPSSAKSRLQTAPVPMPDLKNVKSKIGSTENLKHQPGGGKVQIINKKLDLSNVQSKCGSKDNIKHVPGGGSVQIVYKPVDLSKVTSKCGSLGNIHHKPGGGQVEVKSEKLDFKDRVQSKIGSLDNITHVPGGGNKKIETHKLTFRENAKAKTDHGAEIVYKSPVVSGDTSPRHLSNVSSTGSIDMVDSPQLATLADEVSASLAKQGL

- TG/wt (binding to P301L tau from Tg4510 mice over wild type): 1
B1: 4E4 (antibody, from another filing, V domains shown)
VH: EVQLVESGGGLVQPGGSLKLSCAASGFNFNISAIHWVRQASGKGLEWVGRIRSKSHNYATLYAASLKGRFTLSRDDSRNTAYLQMSSLQTEDMAVYYCTVLSANYDTFDYWGQGTLVTVSS
VL: SYELTQPPSVSVSPGQTARISCFGDTLPKQYTYWYQQKPGQAPVLVIYKDTERPSGIPERFSGSSSGTTVTLTISGVQAEDEADYYCLSADNSATWVFGGGTKVTVL
